Reference: US20260201008A1, “SECRETIN-DERIVED GLP1R SELECTIVE AGONISTS” (GUBRA A/S, priority 2023, published 2026)
Read-outs that look alike come from different tables or passages of the source. Square brackets hold non-standard residues; d marks the D form. Ends that are not written are not given here. Aib = CC(C)(N)C(=O)O

B1: SEQ ID NO: 216 (GUB06-046) (peptide)
peptide: H[Aib]EGTFTSDLSRLLEGAALQRFIQWLV-NH2
modifications: N-terminus assumed
SMILES: CC[C@H](C)[C@H](NC(=O)[C@H](Cc1ccccc1)NC(=O)[C@H](CCCNC(=N)N)NC(=O)[C@H](CCC(N)=O)NC(=O)[C@H](CC(C)C)NC(=O)[C@H](C)NC(=O)[C@H](C)NC(=O)CNC(=O)[C@H](CCC(=O)O)NC(=O)[C@H](CC(C)C)NC(=O)[C@H](CC(C)C)NC(=O)[C@H](CCCNC(=N)N)NC(=O)[C@H](CO)NC(=O)[C@H](CC(C)C)NC(=O)[C@H](CC(=O)O)NC(=O)[C@H](CO)NC(=O)[C@@H](NC(=O)[C@H](Cc1ccccc1)NC(=O)[C@@H](NC(=O)CNC(=O)[C@H](CCC(=O)O)NC(=O)C(C)(C)NC(=O)[C@@H](N)Cc1c[nH]cn1)[C@@H](C)O)[C@@H](C)O)C(=O)N[C@@H](CCC(N)=O)C(=O)N[C@@H](Cc1c[nH]c2ccccc12)C(=O)N[C@@H](CC(C)C)C(=O)N[C@H](C(N)=O)C(C)C

Experiments:
GLP1R = GLP1R (Homo sapiens, UniProt P43220); conditions: prior art value; cited from earlier work
Sequence of GLP1R (P43220 24-463, species assumed): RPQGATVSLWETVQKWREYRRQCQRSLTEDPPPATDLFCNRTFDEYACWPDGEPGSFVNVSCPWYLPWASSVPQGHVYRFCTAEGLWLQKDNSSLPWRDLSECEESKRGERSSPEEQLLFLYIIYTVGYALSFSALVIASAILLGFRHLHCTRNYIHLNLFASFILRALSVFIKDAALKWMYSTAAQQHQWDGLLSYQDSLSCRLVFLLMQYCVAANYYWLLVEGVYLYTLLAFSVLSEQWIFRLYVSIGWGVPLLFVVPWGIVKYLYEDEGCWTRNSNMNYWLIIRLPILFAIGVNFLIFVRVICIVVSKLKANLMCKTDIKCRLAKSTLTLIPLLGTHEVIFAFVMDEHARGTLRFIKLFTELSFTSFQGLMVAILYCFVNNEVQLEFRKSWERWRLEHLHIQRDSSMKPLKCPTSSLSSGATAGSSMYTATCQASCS

SCTR = SCTR (Homo sapiens, UniProt P47872); conditions: prior art value; cited from earlier work
Sequence of SCTR (P47872 23-440, species assumed): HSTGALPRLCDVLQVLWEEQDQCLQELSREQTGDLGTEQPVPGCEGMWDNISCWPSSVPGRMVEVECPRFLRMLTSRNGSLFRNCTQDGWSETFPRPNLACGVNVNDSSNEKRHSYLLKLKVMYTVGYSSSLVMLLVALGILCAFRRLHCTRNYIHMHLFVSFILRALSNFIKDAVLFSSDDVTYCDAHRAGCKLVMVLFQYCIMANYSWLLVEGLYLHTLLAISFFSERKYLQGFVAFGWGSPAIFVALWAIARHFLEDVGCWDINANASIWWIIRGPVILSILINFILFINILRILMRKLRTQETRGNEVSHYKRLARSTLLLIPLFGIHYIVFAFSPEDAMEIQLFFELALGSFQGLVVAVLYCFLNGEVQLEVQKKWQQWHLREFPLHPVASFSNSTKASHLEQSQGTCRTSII

[1] = target: T1, human secretin receptor (hSCTR) (human, UniProt P47872 23-440); assay: cell-based or functional assay
T1 sequence (P47872 23-440): as the sequence (P47872 23-440, species assumed) above

[2] = target: T2, human GLP-1 receptor (hGLP1R) (human, UniProt P43220 24-463); assay: cell-based or functional assay
[3] = target: T1, human secretin receptor (hSCTR); assay: cell-based or functional assay; remark: listed apart in the source
[4] = target: T2, human GLP-1 receptor (hGLP1R); assay: cell-based or functional assay; remark: listed apart in the source

Molecule | EC50 (GLP1R) [nM] | EC50 (SCTR) [nM] | pEC50 hSCTR [1] | pEC50 hGLPR1 [2] | pEC50 hSCTR [3] | pEC50 hGLPR1 [4]
H-Aib-EGTFTSDLSRLLEGAALQRFIQWLV (H[Aib]EGTFTSDLSRLLEGAALQRFIQWLV-NH2; N-terminus assumed; SMILES CC[C@H](C)[C@H](NC(=O)[C@H](Cc1ccccc1)NC(=O)[C@H](CCCNC(=N)N)NC(=O)[C@H](CCC(N)=O)NC(=O)[C@H](CC(C)C)NC(=O)[C@H](C)NC(=O)[C@H](C)NC(=O)CNC(=O)[C@H](CCC(=O)O)NC(=O)[C@H](CC(C)C)NC(=O)[C@H](CC(C)C)NC(=O)[C@H](CCCNC(=N)N)NC(=O)[C@H](CO)NC(=O)[C@H](CC(C)C)NC(=O)[C@H](CC(=O)O)NC(=O)[C@H](CO)NC(=O)[C@@H](NC(=O)[C@H](Cc1ccccc1)NC(=O)[C@@H](NC(=O)CNC(=O)[C@H](CCC(=O)O)NC(=O)C(C)(C)NC(=O)[C@@H](N)Cc1c[nH]cn1)[C@@H](C)O)[C@@H](C)O)C(=O)N[C@@H](CCC(N)=O)C(=O)N[C@@H](Cc1c[nH]c2ccccc12)C(=O)N[C@@H](CC(C)C)C(=O)N[C@H](C(N)=O)C(C)C) [SEQ ID NO: 216, prior art SCTR/GLP1R co-agonist (Witteloostuijn, 2017)] | 0.12 | 1.3 |  |  |  | 
B1 |  |  | 9.3 -log M | 10.4 -log M | 9.3 -log M | 10.4 -log M
